Results published in patent publication US20230110287A1 (SCOUT BIO, published 2023).

B1: caninized anti-NGF monoclonal antibody SCB01 (antibody, V domains shown)
VH: EVTLQESGPGLVKPSQTLSLTCVVSGLSLTNNNVNWVRQRPGRGLEWMGGVWAGGATDYNSALKSRISITRDTAKNQVSLQLSSMTTEDTAVYYCARDGGYSSSTLYAMDAWGQGTLVTVSS
VL: EIVMTQSPASLSLSQEEKVTITCRASEDIYNALAWYQQKPGQAPKLLIYNTDTLHTGVPSRFSGSGSGTDYSFTISSLEPEDVAVYFCQHYFHYPRTFGAGTKVELK
B2: felinized anti-NGF monoclonal antibody Fe1 (antibody, V domains shown)
VH: QVQLMESGADLVQPSESLRLTCVASGLSLTNNNVNWVRQAPGKGLEWMGGVWAGGATDYNSALKSRLTITRDTSKNTVFLQMHSLQSEDTATYYCARDGGYSSSTLYAMDAWGQGTTVTVSA
VL: DIEMTQSPLSLSATPGETVSISCRASEDIYNALAWYLQKPGRSPRLLIYNTDTLHTGVPDRFSGSGSGTDFTLKISRVQTEDVGVYFCQHYFHYPRTFGQGTKLELKR
notes: Expressed in CHO cells

Experiments:
mouse (murine) NGF [1] = biological target: T1, mouse (murine) NGF (mouse, UniProt P01139 122-241, limits assumed); assay: ELISA on murine NGF, Abs 450
T1 construct: also called muNGF; beta muNGF

[2] = biological target: NGF (added at 10 ng/mL to TF-1 cell cultures); assay: cell-based or functional assay
mouse (murine) NGF [3] = biological target: T1, mouse (murine) NGF; assay: ELISA on plate-coated murine NGF (0.1 ug/ml), detection with goat anti-feline IgG-HRP, Abs 450
Method: ELISA plates were coated with 0.1 μg/ml mouse (murine) NGF (muNGF) and blocked with PBS/0.05% Tween 20/1% BSA. muNGF-coated wells were then incubated for 1 hour at room temperature with antibody preparations, diluted in PBS/0.05% Tween 20/1% BSA (100 μl/well). Antibody concentrations ranging from 100 ng/ml to 1.56 ng/ml were used to establish a binding curve. After washing, the plates were incubated with a 1/5,000 dilution of goat anti-feline IgG-HRP in PBS/0.05% Tween 20/1% BSA. Plates were washed with PBS/0.05% Tween 20 and developed by the addition of TMB substrate. Development was stopped by the addition of 2M H₂SO₄, absorbance read at 450 nm and background values were subtracted from the absorbance readings.

T1 sequence (P01139 122-241 limits assumed): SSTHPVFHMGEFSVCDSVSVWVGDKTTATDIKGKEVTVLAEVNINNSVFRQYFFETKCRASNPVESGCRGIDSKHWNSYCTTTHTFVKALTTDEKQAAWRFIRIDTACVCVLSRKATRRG
NGF (added at 10 ng/mL to TF-1 cell cultures), sequence (P01138 122-241): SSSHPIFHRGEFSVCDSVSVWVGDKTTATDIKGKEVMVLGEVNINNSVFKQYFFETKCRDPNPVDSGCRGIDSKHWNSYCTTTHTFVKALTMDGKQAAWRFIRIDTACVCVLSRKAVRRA

Binder | binding result (mouse (murine) NGF [1]) | IC50 (read off the curve), NGF-driven TF-1 cell proliferation [2] [µg/mL] | binding result (mouse (murine) NGF [3])
B1 | binds | – | –
B2 | – | ~0.05 | binds
